Laboratory results from paper PMC6786761.

Substrate: CN1CCC[C@@H]1c1cccnc1
Experiment: oxygen electrode, initial rates
Type: biochemical, Paenarthrobacter nicotinovorans
Conditions: 0.1 M Na-HEPES pH 8.0, 0.1 M NaCl, 25 °C, 250 μM O2, apparent

B1: D-6-hydroxynicotine oxidase (DHNO) (Paenarthrobacter nicotinovorans) (protein)
chain: MSSKLATPLSIQGEVIYPDDSGFDAIANIWDGRHLQRPSLIARCLSAGDVAKSVRYACDNGLEISVRSGGHNPNGYATNDGGIVLDLRLMNSIHIDTAGSRARIGGGVISGDLVKEAAKFGLAAVTGMHPKVGFCGLALNGGVGFLTPKYGLASDNILGATLVTATGDVIYCSDDERPELFWAVRGAGPNFGVVTEVEVQLYELPRKMLAGFITWAPSVSELAGLLTSLLDALNEMADHIYPSVFVGVDENRAPSVTVCVGHLGGLDIAERDIARLRGLGRTVSDSIAVRSYDEVVALNAEVGSFEDGMSNLWIDREIAMPNARFAEAIAGNLDKFVSEPASGGSVKLEIEGMPFGNPKRTPARHRDAMGVLALAEWSGAAPGSEKYPELARELDAALLRAGVTTSGFGLLNNNSEVTAEMVAEVYKPEVYCRLAAVKREYDPENRFRHNYNIDPEGS
  Km: 0.84 ± 0.12 mM
